{
  "source": "patent US20240294611A1",
  "molecular_target": "SARS-CoV-2 spike (two-proline stabilized S-2P extracellular domain fused to foldon) (SARS-CoV-2) (UniProt P0DTC2)",
  "note": "“And” between values parts separate entries of the source, which are not always exact repeats. Equal entries are not always repeated.",
  "data": [
    {"substance": "antibody S309 (Pinto et al., 2020)", "values": [
      {"measurement": "Kd", "value": "7 nM and 20 nM"}
    ]}
  ]
}
